Each block holds one binder with its values, some of them ahead of it.
Tests used:
[1] = molecular target: T1, CD33 (human, UniProt P20138 18-364); experiment: column 'KD MOLM-13': flow cytometry on MOLM-13 cells (CD33+ CD47+), KD as an avidity value
T1 construct: whole, on cells; Species is stated as human for the transfected lines; also called human CD33; CHO.exCD33

[2] = molecular target: T1, CD33; experiment: flow cytometry titration on MOLM-13 cells (CD33+ CD47+), KD as an avidity value
[3] = molecular target: T2, CD47 (human, UniProt Q08722 19-323); experiment: flow cytometry titration on CHO.exCD47 cells, anti-HIS ALEXA-488 detection, n=3
T2 construct: whole, on cells; Species is stated as human for the transfected CHO line; also called human CD47; CHO.exCD47

[4] = molecular target: T2, CD47; experiment: cell-based or functional assay
[5] = molecular target: T1, CD33; experiment: column 'KD MOLM-13': calibrated flow cytometry on MOLM-13 cells, KD as an avidity value
Procedure: (§1) CD33 equilibrium binding constants (KD, as an avidity measurement) of the licMABs and mAb were determined by calibrated flow cytometry analyses as previously described (Benedict et al., 1997; J. Immunol. Methods; 201(2); 223-231). Briefly, MOLM-13 cells were incubated with licMABs or mAb in concentrations ranging from 0.01 to 15 μg/ml and stained with a FITC antiHuman IgG Fc (clone HP6017, BioLegend) secondary antibody by flow cytometry. The instrument was calibrated with 3.0-3.4 μm Rainbow Calibration particles of 8 peaks (BioLegend), the maximum MFI value was set to 100% and all data points were normalized accordingly. The assay was performed in quadruplicates and the values were analyzed by non-linear regression using a one-site specific binding model.

[6] = molecular target: T1, CD33; experiment: calibrated flow cytometry titration on MOLM-13 cells, KD as an avidity value
Procedure: as §1

[7] = molecular target: T1, CD33; experiment: calibrated flow cytometry titration on MOLM-13 cells, KD as an avidity value; panel 'KD determination of Fc-engineered licMABs'
Procedure: as §1

T1 sequence (P20138 18-364): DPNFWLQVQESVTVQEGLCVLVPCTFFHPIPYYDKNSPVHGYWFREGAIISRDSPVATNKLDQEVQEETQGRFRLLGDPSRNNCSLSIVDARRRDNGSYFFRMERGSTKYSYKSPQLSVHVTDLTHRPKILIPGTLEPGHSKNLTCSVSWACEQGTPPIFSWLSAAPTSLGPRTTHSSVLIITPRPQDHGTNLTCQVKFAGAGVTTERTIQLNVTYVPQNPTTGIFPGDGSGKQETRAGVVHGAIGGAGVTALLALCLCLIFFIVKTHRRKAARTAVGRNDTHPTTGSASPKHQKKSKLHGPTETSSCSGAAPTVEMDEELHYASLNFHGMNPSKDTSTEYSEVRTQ

Kd [1]: 30 nM | Kd [2]: 30 nM | Kd [3]: 21 nM | EC50 (concentration of half maximum lysis), redirected lysis of MOLM 13 cells by expanded PBMC effector cells, E:T 2:1, 4 h [4]: 1.5 pM
B1: SirpIg-SirpIg-anti-CD16-anti-CD33 liCAD (other)
chain: EEELQVIQPDKSVLVAAGETATLRCTATSLIPVGPIQWFRGAGPGRELIYNQKEGHFPRVTTVSDLTKRNNMDFSIRIGNITPADAGTYYCVKFRKGSPDDVEFKSGAGTELSVRAKPSGGGGSGGGGSGGGGSGGGGSEEELQVIQPDKSVLVAAGETATLRCTATSLIPVGPIQWFRGAGPGRELIYNQKEGHFPRVTTVSDLTKRNNMDFSIRIGNITPADAGTYYCVKFRKGSPDDVEFKSGAGTELSVRAKPSGGGGSGGGGSGGGGSGGGGSQVTLKESGPGILQPSQTLSLTCSFSGFSLRTSGMGVGWIRQPSGKGLEWLAHIWWDDDKRYNPALKSRLTISKDTSSNQVFLKIASVDTADTATYYCAQINPAWFAYWGQGTLVTVSAGGGGSGGGGSGGGGSGGGGSDTVLTQSPASLAVSLGQRATISCKASQSVDFDGDSFMNWYQQKPGQPPKLLIYTTSNLESGIPARFSASGSGTDFTLNIHPVEEEDTATYYCQQSNEDPYTFGGGTKLEIKGGGGSGGGGSGGGGSGGGGSDIQLTQSPSTLSASVGDRVTITCRASESLDNYGIRFLTWFQQKPGKAPKLLMYAASNQGSGVPSRFSGSGSGTEFTLTISSLQPDDFATYYCQQTKEVPWSFGQGTKVEVKGGGGSGGGGSGGGGSGGGGSEVQLVQSGAEVKKPGSSVKVSCKASGYTITDSNIHWVRQAPGQSLEWIGYIYPYNGGTDYNQKFKNRATLTVDNPTNTAYMELSSLRSEDTAFYYCVNGNPWLAYWGQGTLVTVSS

Kd [5]: 3 nM | Kd [6]: 3 nM
B2: αCD33 mAB (antibody, human IgG1)
heavy: not shown
light: DIQLTQSPSTLSASVGDRVTITCRASESLDNYGIRFLTWFQQKPGKAPKLLMYAASNQGSGVPSRFSGSGSGTEFTLTISSLQPDDFATYYCQQTKEVPWSFGQGTKVEVKVAAPSVFIFPPSDEQLKSGTASVVCLLNNFYPREAKVQWKVDNALQSGNSQESVTEQDSKDSTYSLSSTLTLSKADYEKHKVYACEVTHQGLSSPVTKSFNRGEC
notes: Human IgG1/kappa (pFUSE-CHIg-hG1, pFUSE2-CLIg-hk); It was obtained from SIRPα-PreSc-antiCD33 by PreScission cleavage, so residues of the cleavage site may remain at the light chain N-terminus; also called antiCD33 mAb; anti-CD33 mAB (clone hP67.6)

Kd [5]: 2 nM | Kd [7]: 2 nM
B3: Fc-engineered variant of αCD33 mAB (antibody, human IgG1)
heavy: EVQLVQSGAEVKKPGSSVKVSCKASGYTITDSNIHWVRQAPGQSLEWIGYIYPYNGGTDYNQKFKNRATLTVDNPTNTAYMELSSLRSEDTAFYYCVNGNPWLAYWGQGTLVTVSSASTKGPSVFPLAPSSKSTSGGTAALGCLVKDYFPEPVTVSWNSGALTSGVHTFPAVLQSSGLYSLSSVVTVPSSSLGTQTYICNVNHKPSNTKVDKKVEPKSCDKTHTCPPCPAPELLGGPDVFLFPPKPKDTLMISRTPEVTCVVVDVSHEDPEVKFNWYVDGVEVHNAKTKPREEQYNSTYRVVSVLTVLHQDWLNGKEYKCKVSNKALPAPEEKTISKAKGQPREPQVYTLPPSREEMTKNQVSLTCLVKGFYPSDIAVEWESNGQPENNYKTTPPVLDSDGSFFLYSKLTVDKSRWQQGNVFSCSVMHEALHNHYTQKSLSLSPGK
light: B2 light
notes: Same as m7 with the Fc-engineered IgG1 constant region (S239D, I332E); also called Fc-engineered mAB
